Assay results reported in patent publication US20090325867A1, “RECEPTOR-SPECIFIC TUMOUR NECROSIS FACTOR-RELATED APOPTOSIS-INDUCING LIGAND (TRAIL) VARIANTS” (MEDICAL RESEARCH COUNCIL, priority 2005, published 2009).
Entries after “also recorded” stand apart in the source; their conditions may differ.

Tests used:
Assay type in all cases: cell-based
[1] = test system: Ramos cells; test: Apoptosis by phosphatidylserine (PS) externalization in Ramos cells; conditions: for % PS+ cells, Ramos: 4 h exposure, 500 ng ml^−, Mean ± SEM of at least three determinations; for ability to induce apoptosis in Ramos cells (in words): PS externalization, compared with wt TRAIL
Description: (§1) Cells were also exposed to HGS-ETR1 or HGSETR2 (1 μg ml^−1). C: Ramos or Jurkat cells were pre-incubated for 30 min either alone or with TRAIL-R1 blocking Ab or TRAIL-R2 neutralizing Ab (5 μg ml^−1). […] D: Ramos and Jurkat cells were exposed to wt TRAIL or TRAIL mutants as described above and processing of caspase-3 and -8 determined by Western blot analysis. The asterisk indicates a non-specific band. The lower panel of the blot for detection of the caspase-8 p18 subunit was exposed for twice as long as the upper panel. Apoptosis was assessed by phosphatidylserine externalization and results expressed as the Means±SEM of at least 3 separate determinations.
(§2) Ramos, an Epstein-Barr virus-negative Burkitt's lymphoma cell line, and Jurkat T cells (clone E6-1) were cultured as described (MacFarlane et al (2005 Cell Death and Differentiation vol 12 pages 773-782)). Blood samples were obtained from CLL patients, with patient consent and local ethical committee approval and CLL cells purified as described (MacFarlane et al (2002 Oncogene 21, 6809-6818). Cells were incubated for 16 h with depsipeptide (10 nM), provided by Dr. E. Sausville (NCI, USA). Cells were then cultured for a further 6 h with either HGSETR1 or HGS-ETR2, agonistic mAbs to TRAIL-R1 or -R2, respectively (Human Genome Sciences, Rockville, Md.), His-TRAIL-LE (a recombinant TRAIL with low endotoxin—Alexis Corporation, Nottingham, UK), His-TRAIL, a similar form of human recombinant TRAIL (MacFarlane et al (1997 J Biol Chem 272, 25417-25420)) but not further purified to reduce endotoxin levels or a mutant form of His-TRAIL as described (MacFarlane et al., 2005 ibid.). Cell lines were also pre-incubated for 30 min with a TRAIL-R1 blocking Ab and a TRAIL-R2 neutralizing Ab from Alexis and R&D systems, respectively, prior to exposure to TRAIL. Freshly isolated cells from patients with MCL were isolated, purified and incubated with different forms of TRAIL as described above for CLL cells. Samples were either analyzed immediately for apoptosis or stored at −80° C. for subsequent Western blotting. Other methods and reagents were as described (Inoue (2004 Cell Death Differ 11 Suppl 2, S193-206); MacFarlane et al., 2005 ibid).
(§3) Apoptosis was quantified by phosphatidylserine (PS) externalization in the presence of propidium iodide as described (MacFarlane et al., 2002 ibid.). Samples for Western blot analysis were prepared and caspase processing detected as described (Inoue et al., 2004 ibid.; MacFarlane et al., 2005 ibid.).
Ramos and Jurkat T cells (clone E6-1) were cultured as described (MacFarlane et al, 2005 ibid.). The breast tumour cell line, MCF-7 (clone F43) was cultured as described previously (MacFarlane et al., 2000 J. Cell Biol. 148, 1239-1254). Cells were cultured for either 4 h (Ramos and Jurkat) or 6 h (MCF-7) with His-TRAIL (MacFarlane et al, 1997 J Biol Chem 272, 25417-25420), HGS-ETR1 or HGS-ETR2 (Human Genome Sciences), or a mutant form of His-TRAIL (MacFarlane et al, 2005 ibid.). Samples were analyzed for apoptosis, Western blotting, or TRAIL DISC activation as described (MacFarlane et al, 2005 ibid.; MacFarlane et al. 2002 Oncogene 21, 6809-6818). Mutants of His-TRAIL (residues 95-281) were generated using the Quik-Change site-directed mutagenesis kit (Stratagene, Calif.), confirmed by DNA sequencing, expressed in E. coli and purified as described (MacFarlane et al, 1997 ibid.). For siRNA targeting of TRAIL-R1/-R2, MCF-7 cells were seeded into six-well plates immediately prior to effectene-mediated RNAi transfection with either a negative control siRNA (30 nM, Ambion, #4611), or preannealed siRNA oligonucleotides for TRAIL-R1 or TRAIL-R2 (30 nM, Ambion), with the sequence and validity described (Ren et al, 2004 Mol. Biol. Cell vol 15 pp 5064-5074). After 40 h of transfection the cells were collected and total TRAIL-R1 or TRAIL-R2 levels assessed. […]

[2] = test system: Jurkat cells; test: Apoptosis by phosphatidylserine (PS) externalization in Jurkat cells; conditions: for % PS+ cells, Jurkat: 4 h exposure, 500 ng ml^−, Mean ± SEM of at least three determinations; for ability to induce apoptosis in Jurkat cells (in words): PS externalization, compared with wt TRAIL
Description: as §1, with “determinations. […]” for “determinations.”
as §3
Ramos and Jurkat T cells (clone E6-1) were cultured as described (MacFarlane et al, 2005 ibid.). The breast tumour cell line, MCF-7 (clone F43) was cultured as described previously (MacFarlane et al., 2000 J. Cell Biol. 148, 1239-1254). Cells were cultured for either 4 h (Ramos and Jurkat) or 6 h (MCF-7) with His-TRAIL (MacFarlane et al, 1997 J Biol Chem 272, 25417-25420), HGS-ETR1 or HGS-ETR2 (Human Genome Sciences), or a mutant form of His-TRAIL (MacFarlane et al, 2005 ibid.). Samples were analyzed for apoptosis, Western blotting, or TRAIL DISC activation as described (MacFarlane et al, 2005 ibid.; MacFarlane et al. 2002 Oncogene 21, 6809-6818). Mutants of His-TRAIL (residues 95-281) were generated using the Quik-Change site-directed mutagenesis kit (Stratagene, Calif.), confirmed by DNA sequencing, expressed in E. coli and purified as described (MacFarlane et al, 1997 ibid.). For siRNA targeting of TRAIL-R1/-R2, MCF-7 cells were seeded into six-well plates immediately prior to effectene-mediated RNAi transfection with either a negative control siRNA (30 nM, Ambion, #4611), or preannealed siRNA oligonucleotides for TRAIL-R1 or TRAIL-R2 (30 nM, Ambion), with the sequence and validity described (Ren et al, 2004 Mol. Biol. Cell vol 15 pp 5064-5074). After 40 h of transfection the cells were collected and total TRAIL-R1 or TRAIL-R2 levels assessed. Where indicated, RNAi transfected MCF-7 cells were either left untreated or exposed to wt-TRAIL and apoptosis assessed by the extent of Bax activation, determined using the conformation specific Bax MAb, clone 3 (Dewson et al, 2003 Oncogene vol 22 pp 2643-54).

[3] = target: T1, TRAIL-R1 (DR4) (Homo sapiens, UniProt O00220); test: TRAIL-R1 selective apoptotic signalling (Ramos versus Jurkat cells); conditions: from apoptosis in Ramos (TRAIL-R1) and Jurkat (TRAIL-R2) cells
T1 construct: Ramos and Jurkat cells, which signal predominantly through TRAIL-R1 and TRAIL-R2, respectively; endogenous in cells; host or cells: Ramos cells (Jurkat cells as TRAIL-R2 comparison)
From the text: Another test involves the assay of the effect in R1- (DR4-) only cells. This is the preferred test for DR4 selectivity as discussed herein. Preferably the ligand is applied to an R1-only signalling cell. Preferably the cell is a Ramos cell. Preferably the read-out is functional activity, preferably death-inducing activity (apoptosis). This is crucial to the test—mere binding is not as robust an indicator as functional induction of death. Thus, preferably a DR4 selective ligand according to the present invention induces death in a DR4 only signalling cell, such as a Ramos cell.
as §2, §3
Referring to FIG. 4: Ramos cells (A) and Jurkat cells (B) were cultured with increasing concentrations of Arg191Leu or Asn199Val single mutants of His-TRAIL ([…]) or His-TRAIL (500 ng/ml), ETR1 or ETR2 (1000 ng/ml) for 4 h. Apoptosis was quantified by measuring the % PS+ cells and results shown in FIG. 4 are the Mean±SEM of three independent experiments. Thus the biological importance TRAIL residues R191 and N199 in TRAIL-R1 selectivity is shown.

Molecule | % PS+ cells, Ramos [1] [%] | ability to induce apoptosis in Ramos cells (in words) [1] | % PS+ cells, Jurkat [2] [%] | ability to induce apoptosis in Jurkat cells (in words) [2] | receptor selectivity of apoptotic activity (in words) [3]
TRAIL.R1-4: 6His TRAIL 95-281 with 199Val, 201Arg, 213Trp and 215Asp (protein) TSEETISTVQEKQQNISPLVRERGPQRVAAHITGTRGRSNTLSSPNSKNEKALGRKINSWESSRSGHSFLSNLHLRNGELVIHEKGFYYIYSQTYFRFQEEIKEVTRNDKQMVQYIYKWTDYPDPILLMKSARNSCWSKDAEYGLYSIYQGGIFELKENDRIFVSVTNEHLIDMDHEASFFGAFLVG | 43.5 ± 2.5 | retained the activity of wt TRAIL | 25.0 ± 2.6 | decreased activity; also recorded: lost some activity | good R1 selective activity; also recorded: a degree of selectivity for TRAIL-R1
TRAIL N199V: Asn199Val single mutant of His-TRAIL (protein) TSEETISTVQEKQQNISPLVRERGPQRVAAHITGTRGRSNTLSSPNSKNEKALGRKINSWESSRSGHSFLSNLHLRNGELVIHEKGFYYIYSQTYFRFQEEIKEVTKNDKQMVQYIYKYTSYPDPILLMKSARNSCWSKDAEYGLYSIYQGGIFELKENDRIFVSVTNEHLIDMDHEASFFGAFLVG |  |  |  |  | TRAIL-R1 selective
TRAIL.R1-1: His-TRAIL (95-281) with single substitution Tyr189Ala (protein) TSEETISTVQEKQQNISPLVRERGPQRVAAHITGTRGRSNTLSSPNSKNEKALGRKINSWESSRSGHSFLSNLHLRNGELVIHEKGFYYIYSQTAFRFQEEIKENTKNDKQMVQYIYKYTSYPDPILLMKSARNSCWSKDAEYGLYSIYQGGIFELKENDRIFVSVTNEHLIDMDHEASFFGAFLVG | 30.6 ± 2.9 | decreased ability to induce apoptosis | 24.9 ± 2.2 | decreased ability to induce apoptosis | 
TRAIL.R1-2: His-TRAIL (95-281) with 213Trp and 215Asp (Y213W;S215D) (protein) TSEETISTVQEKQQNISPLVRERGPQRVAAHITGTRGRSNTLSSPNSKNEKALGRKINSWESSRSGHSFLSNLHLRNGELVIHEKGFYYIYSQTYFRFQEEIKENTKNDKQMVQYIYKWTDYPDPILLMKSARNSCWSKDAEYGLYSIYQGGIFELKENDRIFVSVTNEHLIDMDHEASFFGAFLVG | 42.2 ± 3.1 | very similar activity to wt TRAIL | 46.6 ± 3.1 | very similar activity to wt TRAIL | neither specific for TRAIL-R1 nor R2; also recorded: did not show any differential effects
TRAIL.R1-5a: His-TRAIL (95-281) with 189Ala, 199Val, 201Arg, 213Trp, 215Asp (protein) TSEETISTVQEKQQNISPLVRERGPQRVAAHITGTRGRSNTLSSPNSKNEKALGRKINSWESSRSGHSFLSNLHLRNGELVIHEKGFYYIYSQTAFRFQEEIKEVTRNDKQMVQYIYKWTDYPDPILLMKSARNSCWSKDAEYGLYSIYQGGIFELKENDRIFVSVTNEHLIDMDHEASFFGAFLVG | 18.9 ± 0.7 | markedly diminished activity | 6.6 ± 0.4 | complete inactivity | 
TRAIL R191L: Arg191Leu single mutant of His-TRAIL (protein) TSEETISTVQEKQQNISPLVRERGPQRVAAHITGTRGRSNTLSSPNSKNEKALGRKINSWESSRSGHSFLSNLHLRNGELVIHEKGFYYIYSQTYFLFQEEIKENTKNDKQMVQYIYKYTSYPDPILLMKSARNSCWSKDAEYGLYSIYQGGIFELKENDRIFVSVTNEHLIDMDHEASFFGAFLVG |  |  |  |  | TRAIL-R1 selective
